Assay: soluble on expression in E. coli; label from the status in PepcDB or PDB records
With “MNIKKHLPWLGALLPIINAQADTNPNVVIIYIDDMGIGDIGCYGGKFVATPNIDKLAQDGLLFNQYYSSAPVSSPSRCGLTTGLFPIEVGINTFLNDKASNKRCEQRNYLDDKLPSMARAFQNAGYATGHIGKWHMGGGRDVHNAPSIKNYGFDEYLSTYESPDPDPAITASKWIWCDNDSIKRWKRTEYFVDKSIDFIKRHKDSPFFLNLWPDDMHTPWVPEFKQKERKSWETKEAFSPVLGEMDKQIGRFIKALDDMGLSENTIIIFTSDNGPAPSFKAVRSAYLRGTKNSLYEGGIRMPFIVKYPKKIKPGRVNNSSVLCAVDLYPTLCSVAGIKTEKNYKGDGQNYAKVLLGKSEAKRKTDLMWDFGRNKHFGFPGNPYDRSPHLAIRSGKWKLLVNGDGSDAQLYDMELDKFEKNNIAGEHPELVAKLSKKVCEWYAQNKDKGLQTDLLEHHHHHH” the “soluble on expression in E. coli” value was “soluble”. For “MNILYDERLDGPLPQVDKDGLLAELRLRLPDLELLHAAEDLRPYECDGLSAYRCTPLLVALPERIEQVQGLLALCHRLKVPVVARGAGTGLSGGALPLENGVLLVMARFRRILEIDPLGRFARVQPGVRNLAISQAAAPHGLYYAPDPSSQIACSIGGNVAENAGGVHCLKYGLTVHNLLQVDIVTLEGERLSLGSSALDSAGFDLLALFTGSEGLLGVVVEVTVRLLPRPPVAKVLLASFDDVESAGRAVADLIGAGIVPAGLEMMDNLSIRAAEDFIHAGYPVDAAAILLCELDGVEADVHEDCERVRELFEAAGATSVRQAQDEAERQRFWAGRKNAFPAVGRISPDYYCMDGSIPRRELPRVLHGIAELSREYGLRVANVFHAGDGNMHPLILFDANLAGELERAEALGGRILELCVAVGGSITGEHGVGREKINQMCAQFNADELTLFHAVKAAFDPAGLLNPGKNVPTLHRCAEFGAMHVHHGRLPFPELERF”, the “soluble on expression in E. coli” value was “not soluble”. In the case of “MNIVNKDSKNTFTRMCIGEAIIKLLKDTDFDKIRITSVAKCAGVSRITFYKYYESIHDALCDYLNIIIIEYLEECANNPENGSFLDYSHILFALEFFNRYKDYFLTLSRCGLHSILINSINNFMSEHFTNPKNYSEYRLYCYSGGLLNTFLKWEENGCDCDAGEIARTLEELYS”, the “soluble on expression in E. coli” value is reported as “not soluble”. With “MNIVPILLIRFYQSFISPLLGPSCKYHPTCSNYAIEAFRQHNFFYASWLTVWRVLRCNPFSKGGYDPVPPKSVKSAGNSKDSKLEHHHHHH” the “soluble on expression in E. coli” value was “not soluble”. For “MNKAQIEIYYCRQCNWMLRSAWLSQELLHTFSEEIEYVALHPDTGGRFEIFCNGVQIWERKQEGGFPEAKVLKQRVRDLIDPERDLGHVDRPSSTQSLEHHHHHH”, the “soluble on expression in E. coli” value was “soluble”. In the case of “MNKEERAKRQSKIRNFSIIAHIDHGKSTLADRILEKTNALTQREMKAQLLDSMDLERERGITIKLNAIQLNYKAKDGEEYILHLIDTPGHVDFTYEVSRSLAACEGAILVVDAAQGIEAQTLANVYLALDNNLEILPVINKIDLPSADPERVRQEVEDVIGLDASEAVLASAKAGIGIEEILEQIVEKVPAPTGDSEEPLQCMIFDSLYDPYRGVIAYIRVVNGTVKVGDKVRMMATGKEFEVTEVGVFTPKTTQRDELTVGDVGFLAASIKNVGDTRVGDTITHAKRPAAEPLAGYRKLNPMVFCGLYPIDSARYNDLRDALEKLELNDSALEFEPETSQALGFGFRCGFLGLLHMEILQERIEREFKIDLITTAPSVIYKVFLTNGEDMIVDNPSNMPDPQTIDRVEEPFVKAAIMVPNDYVGAVMEICQGKRGTFIDMQYLDETRVTLTYEIPLSEIVYDFFDQLKSNTKGYASFDYELIGYKPSKLVKMDILLNSEQVDALSFIVHRDSAYDRGKVIVEKLKELIPRQQFEVPIQATIGNKVVARSTIKAMRKNVLAKCYGGDISRKRKLLDKQKEGKKRMKSVGSVEVPQEAFMAVLKMDDN”, the “soluble on expression in E. coli” value is reported as “soluble”. In the case of “MNKFVKSLLVAGSVAALAACSSSNNDAAGNGAAQTFGGYSVADLQQRYNTVYFGFDKYDITGEYVQILDAHAAYLNATPAAKVLVEGNTDERGTPEYNIALGQRRADAVKGYLAGKGVDAGKLGTVSYGEEKPAVLGHDEAAYSKNRRAVLAY”, the “soluble on expression in E. coli” value is reported as “soluble”. For “MNKKNKFFDIYLELEQDITSGVYPAGTLLPSENVLAKRFSVSRETIRKALVLLLENGCIQKLQGKGSIVIDRERYSFPVSGLTSFKELQKSEQMNATTEVIRNEETTLPDRIADFAGLPHGSNCLAILRVRYLEGEATILDYDYLLDKTEPIANEILEDSLYQYLENEKGYEISYAQKEITVEPLNAEDKKYLALHGDTHVVVVKSTVFLKDTTLFQYTESRHRLDKFRFIDFARRR”, the “soluble on expression in E. coli” value was “not soluble”. For “MNKKQRDEISKLLSYVLRHAPESMGLTLDRDGWCEVDELVGKANANGHSFDRQALEEVVETNEKKRFTLSEDGQRIRAAQGHSTEQVQVQHIEKEPPAWLYHGTASRFMASIETQGLIAGSRHHVHLTEDPETALSVGKRYGQPVLLAVDAKGMFEAGVQFFQADNGVWLVEAVPIEWLTKVADTVSLEHHHHHH”, the “soluble on expression in E. coli” value was “soluble”. With “MNKTKNYSDETIDAFHRGKFYLVQPRLCGHRSGMDAMLLASLVPNNFKGKVVDLGAGAGAVGLAVAARCLDVHVTLVERSAFMVSYAQKTLMLKQNENLSKRVCLLKADVTLKGRSRLEAGLVDNAFDFAIMNPPFNNPVDRKTPDEKKFEAHVMPESMFDDWLRSAAAIVKPGGYLGLIARPQSLTDILCALEGRFGNICVIPIHARTEKAAIRVLFYAKRGSRAALSLLRPLVIHEDGCHIFSPKIDAINNGHISLWELLK” the “soluble on expression in E. coli” value was “not soluble”. In the case of “MNLASVLLLLAACHLSVSVNGQEHKEAIELSMANHDHVLGSAQVVFVAFCADWCPFSRRLKPIFEESARVFHQENPQASAVWAIVDSQRQADIGDKYFVNKYPTMKVFVNGELITKEYRSTRSVEALTNFVKFQLSTAINEFSSQDQLNQEMDKSKRNVVAWLKKDGPEFANLKKVASILREDCSFWVPTDHFGTQTNDNKLSFFDPDSNEEAKFTGNFNDYDFVKQWVTDKCIPLVREVTFENVEELTEEGMPFLIYFRDPDNKTTDKVFGEAVARELYDQRSAINPLLADGHKFAHPLKHLGKTKEDLPVLAIDSFQHMYLFPDMTQMNIPGKLREFVMDLHSGKLHKDFHENLDQRMIELAKAKAARGITDDHEAQAPSTRPIDTTPPPSVFKELKPSDKRYSILQKSEL”, the “soluble on expression in E. coli” value is reported as “not soluble”. In the case of “MNLMNVADKVIKSAFESDEVFQKTLSAVIKEDLNLTAVDFAKKANIPPSTLYKILSGNRDPNIKTLRQIVKTIRDIKESDSGEFIAVIAARSVLDNIVETKKKIGGRLVTIREYSATSMEDAIISAVNAERDGAKALVCAPIVGPTVEKILNIPVTTIAPKNSLIDAIERALKKME”, the “soluble on expression in E. coli” value is reported as “not soluble”. For “MNLSNHFLVAMPDMEDAFFSQSVVYICKHDEDGALGIAINKPSPITMDMIFSATGKNIPFRMQHDSVMMGGPVQVERGYVVHTPIGNWQSSIGVSDNIALTSSRDVIENISREGAVDKILISIGYSSWGKGQLERELADNAWLTVPADEHILFDIPYEHRYAAAFAKLGIDPLALFSGAGHALEHHHHHH”, the “soluble on expression in E. coli” value was “soluble”. For “MNMPLISIIMPVYNAECYLNQGILSCLNQSYQNIELILIDDGSTDKSIEIINNIIDKDKRVKLFFTPTNQGPAAARNIGLEKAQGDYITFLDSDDFIANDKLEKQLNFMLQNHLVMTHGNYAFCDLEGNQIKLVTTSKKIDYLTLLQGNQFKIMTVLVERESIKLLRFPNIKHEDYAFFLDCLKEVKQSILYSHQASSFVRIGKVSVSSNKFKSAIWTFNIYFKREKLGVVKSIYYFILYAYNGFIKYKK”, the “soluble on expression in E. coli” value was “not soluble”. For “MNNALYNQIRIFQSIAREGNISAAARKLEITPPSVSNALRLLEEHIGHPLFVRTTRRIELTETGQQLLEQTAAAVETLEKSLEIIRDQNQEPSGAVRITLSRFAYLLILKPAMAAFCQQYPGIQLEISVYDGTVNIIEERFDLGIRFGDILEGGVVARPLMKPFREGLYASSAYLAEYGVPAMPADLHHHRLIGYRFITNNRILPLILNDHGEQLTVEMPGQLISNDIDVMADGIRHGLGIGRLFEPILQLQPDREQFIPVMEDYWKTYPPVYLYYPKNAGRTKRVKALIDFLIMYAADDAEKIGSSR”, the “soluble on expression in E. coli” value was “not soluble”. In the case of “MNNNENQTLISGGTVVTPTTEIEKGTVAFSNGKIVSVEAESHDNPDIDATGKYVLPGLVDLHGDDIERHLFPRAEERVDTTIALDRCDIANASAGVTTKYHAISFEDVPDDNRSIELARRLAEQIRNFNYETGARVDNRLHMRCELTNEASVDAVSEEIKSGGDLVSLVTHVPGTGQFTGENTLAQRYDRSDGELETGLQSLKTRRSGVPEAELLARAREVTELASNRNMTVASHDDETVASVDNAAAIGVDISEYPLSHRVAQRATELNLTVAMGAPNVVRGGSLWDGPDASQAIKDGVVDILCSDFRPQSLLSSVFIENDEPLKDRVFRVSTAPAAAAGLYDRGRLECGARADIIIVDPDPSPSIARTYVAGDQVYCSA”, the “soluble on expression in E. coli” value is reported as “not soluble”. With “MNNPEESAVTDLRKFTNLVLNGLVDEEATAAALIRYQFQQRTIKDVVRRGSEDPELKAQICDLLNHLVIYLNEEIVETSSKACPDGMDDRHFVQLEKRMHLMFEVYLAMNVVPDYLIPDLTKHVDASREAVKYSYSLCKDYYRWKELPLTLKEFFLDEKEEVKAVVDEPEPTMFARDDGVVSSLAHEKAQSDEDGKKKQFVAKTEKVLNNYRAKNPDYRTMRELINAKTKFRLEGIYCDSLIDDFISVWDMAIDIEPVKTEDKFAFTSLLKKVFLMMVDKRRNDFASKILDKYNNDASGVLPCLDNFVENFQTGLTAAINNLPLDANVLSNNMELFEKAKDPIIWYLLISPAYTVQQILLICVDNKGYVPLVSRIFRAIPTLFERSVNLTPMHFEGFKTQKLLITILHRVFIIGRTTWTSASQWENAAMMTMSFAKERKRKEGQPEKVEDKALLDSFSLVNFALNELFKDYRKPLKAVEIFVKMLQRLLANNNNARMLTNYQFSSSFFDDGNNYLPTSIIMLLMFDLLVEYDGQSNEVCDGARDILKSVSGRLNNDNIIFDTDTCRHLIDEKLNYAPWWIKYSICSWFSSSLQNPKKQVPSGVYKTIAEQHLDEFEQIKPEEVSTVSDCYFRSLFELGLFDVDLAIELLQYGHVAKFESSVVEKIALALVDSYGKKMSKRSGGLDIGKLIISMLQNSSYLESVKKIEHILVLFMAARIAKEKQLSAARVRTDDTIQTAYDEVISLNQVSDQLMDIFCETTKAHVDKEVMEVEQMRREVEVLLFSTPGTTPNQFKAMVEKENREQSLALQLSMIYLNCSYFCRLYQQVPIKLQQLMNSTLEKQFDSQKFLAKKVMDDVLTEKRKTEVVYAFVDTPVEPTPNEDNIQPVKPAELFRPPVVENVSVESTTYNSNGGGYRQGRYQTGYQGKNRRSNFEQPTSSRGSGRSDRTYAYKGNRFQPVNDSHVFAPRERENVYQNSSHDRDIPRNDYSEYDQEKLYLDDKQPRFHSENRNSNDVRRYSESKDSKYDNKNWNNRSSRWPSESEYSQEDSENRHLDQTIQSVRKFSYRENQQKHNRPGTSSASPPKNQEWKQHQQQKKSFGGGFGENGNKFNGNSRKQPERKPRYTSSNFYEQDEDSLQLLKPDRNELAQAMGLNDPPNPPKPRRSEWTRR” the “soluble on expression in E. coli” value was “not soluble”. With “MNNRSAVRILRLPAVIQKTGMARATIYDWLNPKSPRYDATFPKKRMLGVKSVGWIEAEIDEWLSQRCKLILEHHHHHH” the “soluble on expression in E. coli” value was “not soluble”. For “MNPAALSAFTRSLLFNRCSTSSFCNSITRNAVAFFATAAATPKINVNVGTIGHIDHGKTTLTSAITRVQAKKGFAKHIKFDEIDKGKEEKKRGITINVAHIGYESPLRRYSHTDCPGHSDFIKNMICGTSQMDVAVLVIAATDGVMEQTKEHLILAKQVGVKNMAIFINKADLVEEDDLDLVEMEARELLSLHGFNGDATPVIRGSALSALEGQDISCIERLIDALDSLPEPDRNEKDTFVMPIASKTAITGRGTVIVGTLERGVLKKGDKVEIKGDGQTLQTTASDIQVFGKSVKEVRAGDHCGVLCRGVKGDTVKRGMWAGHPGAVTITNRVKVELYLLSEAENGRKIGIRTGFTDKMYCSTWDQVGRFDMSNELLMPGEHTSATVLLMKDMPLRKGMPFTLREGSSKTTIARGIISDLEDHVAVEKHNLKKSAEKM”, the “soluble on expression in E. coli” value was “not soluble”.

Reference: the DeepSol protein solubility set
